Consider two compounds from paper PMC6770530, “Tumor Uptake of Triazine Dendrimers Decorated with Four, Sixteen, and Sixty-Four PSMA-Targeted Ligands: Passive versus Active Tumor Targeting” (Biomolecules, 2019).

Read-outs that look alike come from different tables or passages of the source.

The target of data set [1] is T1, PSMA (Homo sapiens, UniProt Q04609).
T1 construct: expressed in transfected cells; host or cells: PC3-PIP cells (PSMA positive)
Further details: method as in PMID 15027864, PMID 25822623. The conditions noted are these: cited from earlier work.

Data set [2] deals with T1, PSMA. Kind of data set: Competitive cell-binding assay with 125I-labeled PSMA radioligand in PC3-PIP cells. The conditions noted are these: read-out: IC50 (displacing 50% of the 125I-labeled PSMA radioligand bound to PC3-PIP cells), room temperature 2 h, n = 4. The method, then:
A reported PSMA ^125I-radioligand [21] was used as a PSMA-specific radioligand in the assay. PC3-PIP cells were suspended in Tris-buffered saline (TBS) and seeded on multiwell DV plates (Millipore) with 5 × 10^4 cells per well. […] The unbound ^125I-radioligand was removed by filtration. The wells were rinsed five times with cold TBS buffer. The filters were then collected and their radioactivity was measured on a 2480 automatic gamma counter (PerkinElmer).

Data set [3] deals with PC3-PIP (PSMA positive) and PC3-FLU (PSMA negative) cells. The data set is described as follows: Cell uptake of 64Cu-labeled dendrimers in PC3-PIP and PC3-FLU cells. The data set is classed as cell-based. The conditions noted are these: 64Cu-labeled dendrimer, 1 h at 37 °C, n = 3. The method, then:
Cell uptake experiments were conducted in the PSMA positive PC3-PIP cell lines and the PSMA negative PC-FLU cell lines. The cells (5.0 × 10^5) were seeded to a 6-well plate and incubated at 37 °C overnight in a humidified incubator with 5% CO2. After being rinsed with binding buffer (20 mM Tris, 150 mM NaCl, pH 7.4), the cells in binding buffer (500 µL) were incubated at 37 °C with ~6.0 × 10^5 CPM of ^64Cu-labeled dendrimers for 1 h, washed with cold binding buffer, and then trypsinized. The radioactivity of trypsinized cells was counted on a 2480 automatic gamma counter (PerkinElmer).

For another data set, the system named is PC3-PIP cells. The data set is described as follows: Internalization of 64Cu-labeled dendrimers in PC3-PIP cells. The conditions noted are these: 64Cu-labeled dendrimer, incubation 1-120 min. The class given is cell-based. The procedure: The PC3-PIP cells were used for the internalization study. The 12-well plates containing ~2.0 × 10^5 cells were incubated overnight in a humidified incubator at 37 °C with 5% CO2 and then washed with binding buffer (20 mM Tris, 150 mM NaCl, pH 7.4). Each solution of ^64Cu-labeled dendrimers (~6.0 × 10^5 CPM) in 0.4 mL of binding buffer was incubated with the cells for 1, 10, 30, 60, and 120 min, respectively, and then washed once with ice-cold binding buffer. The surface bound ^64Cu-labeled dendrimers were removed by incubating cells twice for 5 min with 0.5 mL of ice-cold low pH stripping buffer (150 mM NaCl, 50 mM glycine, pH 3.0) and collected in a culture tube. After incubation with 0.5 mL of 4 M NaOH at 37 °C for 15 min, the NaOH-solubilized cells were collected in separate culture tubes. The radioactivity of surface bound/internalized ^64Cu-labeled dendrimers was counted on a 2480 automatic gamma counter (PerkinElmer).

Data set [4] in a line: Serum stability assay of 64Cu-labeled dendrimers. The data set is classed as in vitro ADME, rat. The procedure: The stability of ^64Cu-labeled dendrimers was evaluated in rat serum. […] An aliquot of sample (10 µL) was mixed with 5 mM EDTA (100-fold molar excess) and incubated at 37 °C for 10 min. The resulting solution was analyzed by a Rita Star Radioisotope TLC Analyzer.

The conditions of data set [5]: mouse, in vivo, iv, 64Cu-labeled dendrimer; for tissue uptake at 1 h: 1 h p.i.; for tissue uptake at 4 h: 4 h p.i.
Data set [6] has as its system SCID mice bearing PC3-PIP and PC3-FLU xenografts. The following applies: 64Cu-labeled dendrimer, i.v., 4 h p.i.
On the set-up of data set [7]: method as in PMID 23398590. The following applies: estimated by dynamic light scattering of unfunctionalized analogues; cited from earlier work.
Where [8] appears, read: In vivo organ uptake, Left Kidney.
The mark [9] stands for this setting: In vivo organ uptake, Right Kidney.
Where [10] appears, read: In vivo tumor uptake, PC3-FLU, PSMA negative xenograft right shoulder.
[11] abbreviates: In vivo tumor uptake, PC3-PIP, PSMA positive xenograft left shoulder.

T1 sequence (Q04609 whole entry): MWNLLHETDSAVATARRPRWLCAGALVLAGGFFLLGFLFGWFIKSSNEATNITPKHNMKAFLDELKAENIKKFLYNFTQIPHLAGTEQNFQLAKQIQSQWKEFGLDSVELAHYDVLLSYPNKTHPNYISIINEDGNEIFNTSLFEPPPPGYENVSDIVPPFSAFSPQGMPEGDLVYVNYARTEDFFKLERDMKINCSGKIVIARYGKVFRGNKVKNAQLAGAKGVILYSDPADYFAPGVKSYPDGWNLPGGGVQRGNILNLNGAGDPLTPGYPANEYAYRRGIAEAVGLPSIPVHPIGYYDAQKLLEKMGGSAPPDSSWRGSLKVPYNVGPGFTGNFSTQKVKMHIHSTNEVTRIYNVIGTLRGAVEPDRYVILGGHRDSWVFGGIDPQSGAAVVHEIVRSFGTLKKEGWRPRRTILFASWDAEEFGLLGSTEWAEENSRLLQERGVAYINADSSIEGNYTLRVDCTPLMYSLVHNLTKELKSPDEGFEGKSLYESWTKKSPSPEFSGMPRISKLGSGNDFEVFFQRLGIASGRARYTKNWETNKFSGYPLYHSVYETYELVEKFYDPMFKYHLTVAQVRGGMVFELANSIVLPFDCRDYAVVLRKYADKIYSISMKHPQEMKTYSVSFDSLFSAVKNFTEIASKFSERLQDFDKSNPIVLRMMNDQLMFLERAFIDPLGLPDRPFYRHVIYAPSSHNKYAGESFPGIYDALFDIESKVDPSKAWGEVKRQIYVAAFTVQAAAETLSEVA

On to `O=C(O)CCC(NC(=O)NC(CCC(=O)O)C(=O)O)C(=O)O` (stereo not shown) [DUPA, 2-[3-(1,3-dicarboxypropyl)-ureido] pentanedioic acid], for which, on PSMA [1], the IC50 (usually the point on the concentration scale where inhibition reaches its midpoint) is 47 nM and the Ki (commonly a dissociation constant, usually derived from enzyme kinetics or from competition with a known ligand) is 8 nM.

Regarding `NCC1CCN(c2nc(NCCCOCCOCCOCCCNC(=O)CCCCCCCNC(=O)CC[C@H](NC(=O)N[C@@H](CCC(=O)O)C(=O)O)C(=O)O)nc(N3CCN(c4nc(NCCCOCCOCCOCCCNc5nc(NCCCOCCOCCOCCCNC(=O)CCC(C(=O)O)N6CCN(CC(=O)O)CCN(CC(=O)O)CCN(CC(=O)O)CC6)nc(NCCCOCCOCCOCCCNc6nc(N7CCN(c8nc(NCCCOCCOCCOCCCNC(=O)CCCCCCCNC(=O)CC[C@H](NC(=O)N[C@@H](CCC(=O)O)C(=O)O)C(=O)O)nc(N9CCC(CN)CC9)n8)CC7)nc(N7CCN(c8nc(NCCCOCCOCCOCCCNC(=O)CCCCCCCNC(=O)CC[C@H](NC(=O)N[C@@H](CCC(=O)O)C(=O)O)C(=O)O)nc(N9CCC(CN)CC9)n8)CC7)n6)n5)nc(N5CCN(c6nc(NCCCOCCOCCOCCCNC(=O)CCCCCCCNC(=O)CC[C@H](NC(=O)N[C@@H](CCC(=O)O)C(=O)O)C(=O)O)nc(N7CCC(CN)CC7)n6)CC5)n4)CC3)n2)CC1` (stereo partly shown) [G1-(DUPA)4], the IC50 on PSMA [2] turned out to be 282 nM. Besides, the “PC3-PIP to PC3-FLU cell uptake ratio” value in data set [3] is 10. The “highest (maximum) internalization” value in the data set on PC3-PIP cells came to 49%. In data set [4], the serum stability result is “stable in rat serum and remained intact over 24 h”. The tissue uptake (in general, the percentage of the injected dose found per gram of tissue) at 1 h in data set [5] (In vivo organ uptake, Bone) was determined as 0.08 ± 0.03 %ID/g; in data set [5] (In vivo organ uptake, Brain) it was 0.03 ± 0.01 %ID/g; in data set [5] (In vivo organ uptake, Heart) it was 0.16 ± 0.05 %ID/g; in data set [5] (setting [8]), 53.3 ± 4.37 %ID/g; in data set [5] (In vivo organ uptake, Liver), 1.03 ± 0.16 %ID/g; in data set [5] (In vivo organ uptake, Muscle), 0.06 ± 0.03 %ID/g. Further, the tissue uptake at 1 h is 56.8 ± 5.14 %ID/g in data set [5] (setting [9]), 0.18 ± 0.05 %ID/g in data set [5] (setting [10]) and 0.99 ± 0.36 %ID/g in data set [5] (setting [11]). In addition, the tissue uptake at 4 h is 0.07 ± 0.01 %ID/g in data set [5] (In vivo organ uptake, Bone); 0.02 %ID/g in data set [5] (In vivo organ uptake, Brain); 0.1 ± 0.02 %ID/g in data set [5] (In vivo organ uptake, Heart); 58.7 ± 4.98 %ID/g in data set [5] (setting [8]); 1.2 ± 0.2 %ID/g in data set [5] (In vivo organ uptake, Liver); 0.05 ± 0.01 %ID/g in data set [5] (In vivo organ uptake, Muscle). The tissue uptake at 4 h in data set [5] (setting [9]) was 60 ± 3.27 %ID/g; in data set [5] (setting [10]) it was 0.13 ± 0.02 %ID/g; in data set [5] (setting [11]), 0.87 ± 0.4 %ID/g. Besides, the tissue uptake at 24 h was found to be 0.08 ± 0.02 %ID/g in data set [5] (In vivo organ uptake, Bone, 24 h p.i.); 0.07 %ID/g in data set [5] (In vivo organ uptake, Brain, 24 h p.i.); 0.25 ± 0.05 %ID/g in data set [5] (In vivo organ uptake, Heart, 24 h p.i.); 54 ± 5.96 %ID/g in data set [5] (In vivo organ uptake, Left Kidney, 24 h p.i.); 1.93 ± 0.15 %ID/g in data set [5] (In vivo organ uptake, Liver, 24 h p.i.); 0.13 ± 0.03 %ID/g in data set [5] (In vivo organ uptake, Muscle, 24 h p.i.). In addition, the tissue uptake at 24 h in data set [5] (In vivo organ uptake, Right Kidney, 24 h p.i.) is 55 ± 7.36 %ID/g; in data set [5] (In vivo tumor uptake, PC3-FLU, PSMA negative xenograft right shoulder, 24 h p.i.) it was 0.33 ± 0.06 %ID/g; in data set [5] (In vivo tumor uptake, PC3-PIP, PSMA positive xenograft left shoulder, 24 h p.i.), 0.81 ± 0.36 %ID/g; in data set [5] (level of kidney uptake, over 24 h p.i.) it was 45 to 55 %ID/g. Further, the “PC3-PIP to PC3-FLU uptake ratio (in vivo)” value in data set [6] turned out to be 6.7 ± 3.0. Also, in data set [6], the “PC3-PIP to muscle uptake ratio” value is given as 17.7 ± 5.5. In addition, the dimensions result in data set [7] is recorded as “approximately 2 nm”.
